{"source": "patent US11427869B2", "about": "“T cell balance gene expression, compositions of matters and methods of use thereof” (THE BROAD INSTITUTE, INC., priority 2015, dated 2022)", "test_system": "Th17 cells", "test": "qPCR of Cd5l expression in differentiated T cells", "assay_type": "cell-based, mouse", "conditions": "naïve T cells differentiated with TGF-β1+IL-6 for 48h, expanded in IL-23 in fresh media, 72h", "method": "FIG. 16A-16I. CD5L is a candidate regulator of Th17 cell functional states. (FIG. 16A-FIG. 16C) Single-cell RNA-seq analysis. (FIG. 16A) Cd5l expression of single-cells from in-vitro generated and in-vivo sorted Th17 cells (IL-17.GFP+) from mice at the peak of EAE. […] (FIG. 16D-FIG. 16F) Validation of CD5L expression in vitro. Naïve T cells (CD4+CD62L+CD44−CD25−) were sorted and differentiated as indicated and analyzed by qPCR for CD5L expression at 48h (D) and 72h (E) and by flow cytometry at 48h (F); (E) IL-23 or control was added at 48h in fresh media. (FIG. 16G-FIG. 16I) Validation of Cd5l expression in vivo. (G,H) IL-17A.GFP reporter mice were immunized to induce EAE. Cells were sorted from spleen (G) and CNS (H) at the peak of disease. Cd5l and Il17a expression are measured by qPCR. Figure shown is representative data of three technical replicates from two independent experiments. (I) Cells were sorted from the gut of naïve mice and the number of RNA transcripts measured by nanostring nCounter platform.\nNext, Applicants explored whether CD5L expression is associated with less pathogenic Th17 cells in vivo. Applicants analyzed Th17 cells isolated from mice induced with EAE. […] Next, Applicants analyzed Th17 cells from mesenteric lymph nodes (mLN) and lamina propria (LP) of naïve mice, where Th17 cells contribute to tissue homeostasis and mucosal barrier function. […]", "data": [{"molecule": "IL-23: recombinant mouse IL-23 (R&D), 20 ng/ml (protein, UniProt Q9EQ14 22-196; P43432 23-335, looked up) Interleukin-23 subunit alpha: VPRSSSPDWAQCQQLSRNLCMLAWNAHAPAGHMNLLREEEDEETKNNVPRIQCEDGCDPQGLKDNSQFCLQRIRQGLAFYKHLLDSDIFKGEPALLPDSPMEQLHTSLLGLSQLLQPEDHPRETQQMPSLSSSQQWQRPLLRSKILRSLQAFLAIAARVFAHGAATLTEPLVPTA Interleukin-12 subunit beta: MWELEKDVYVVEVDWTPDAPGETVNLTCDTPEEDDITWTSDQRHGVIGSGKTLTITVKEFLDAGQYTCHKGGETLSHSHLLLHKKENGIWSTEILKNFKNKTFLKCEAPNYSGRFTCSWLVQRNMDLKFNIKSSSSSPDSRAVTCGMASLSAEKVTLDQRDYEKYSVSCQEDVTCPTAEETLPIELALEARQQNKYENYSTSFFIRDIIKPDPPKNLQMKPLKNSQVEVSWEYPDSWSTPHSYFSLKFFVRIQRKKEKMKETEEGCNQKGAFLVEKTSTEVQCKGGNVCVQAQDRYYNSSCSKWACVPCRVRS", "values": [{"measurement": "Cd5l expression (qPCR)", "result": "suppressed"}]}]}
